Test results as given in the DeepSol protein solubility set.

assay: soluble on expression in E. coli; label from the status in PepcDB or PDB records

| Sequence | soluble on expression in E. coli |
| --- | --- |
| STSGPGGPAAAAGGRKENHQWYVCNREKLCESLQAVFVQSYLDQGTQIFLNNSIEKSGWLFIQLYHSFVSSVFSLFMSRTSINGLLGRGSMFVFSPDQFQRLLKINPDWKTHRLLDLGAGDGEVTKIMSPHFEEIYATELSETMIWQLQKKKYRVLGINEWQNTGFQYDVISCLNLLDRCDQPLTLLKDIRSVLEPTRGRVILALVLPFHPYVENVGGKWEKPSEILEIKGQNWEEQVNSLPEVFRKAGFVIEAFTRLPYLCEGDMYNDYYVLDDAVFVLKPV | soluble |
| MSLARELRKGKSNAIGMLFGDPSSGFQSRLHHAALQACNDAGYFLTAGLFREEEDNWDEQLTQFLNRTSIEKMILVPPLCGSTALHDRLIEQGASFVLVSPSRAVAVAHAVCMDDRRAAREITEHLLGLGHRRIAHITGPSDHAATRLRREGFEDAMRAVGDGALRPDWIRPGLFRFKPALECARQILTGPDRPTAIFAANDEMAAAVCFAANSLGLRVPDDLSVVGFDDVAIATTMWPPLTTVAQPYAQMARESVRLLTEVGPPGDAGQAAEKVTIDHALKVRQSTAAEGHHHHHH | soluble |
| METRQASGQLAALVRPNDVNSGSLLFPSKEPGFYVEAPRLKTDVAIDVSGPIARVKVTQRFQNPSQGWIEGTYVFPLPDNSAVDALKMQIGDRFIEGQIKPRQEAREIYEQAKAEGKKTALLEQQRPNIFTNQVANIGPGEEIVVQIEYQQTVHQSGGEFSLRFPMVVAPRYNPAPIVQTVDFNNGAGFAIPRDPVQNREKIEAPVLDPRENARINPVSLTVNLKAGFPLGEVKSSFHDVDIGQDGDQARTISLKGDAVPADKDFELTWKAAPGKTPSAGLFREAIDGKTYLLAFVTPPTAPDAAAPSKREVVFVIDNSGSMSGQSIEQARQSLALAISRLNPNDRFNVIRFDDTMTDYFKGLVAATPDNREKAVAYVRSLTADGGTEMLPALEDALRNQGPVASGALRQVVFLTDGAIGNEQQLFQEITANRGDARVFTVGIGSAPNTYFMTKAAEVGRGTFTQIGSTDQVASRMSELFAKLQNPTMTDIAASFEGIEAEDITPNPMPDLYSGEPVVLTAELPQDKAAGKLQIVGKTGDQPWRVEMDIANAAVGSGISKLWARRKIDDLEARAYERQDPAALDKDIEAVALAHHLVSRVTSLVAVDVTPSRPANEPLGSAKLPLNLPEGWDFGKVFGEKAVPSGGAERHGAATPAGSAEPQRAAAATQDLAASPEIANLMAAAPTAKAATLIAQKSSTVNLPQTATRADEQIMRGLEHHHHHH | soluble |
| MAPSSLSQSFDHAAQTPEIFEKVPSRTVGRKATITKEELFQAALNLIGPEKSISSLSLREVAREAGIAPNSFYRHFRDIDELAIDLINRAGLVLRHIIRESRLQASKQNSIIRSSVEVFIQQLDADEGNLSLLLREAYTGSKSYKEAVERQLNFFQQELQEDLIRLERLNHSRLSHPDLVARAITQLVFTMGAKVLDLPINQRTAVAEQTMIMIRMILEGARHLDESKIR | soluble |
| MTIAQQERPVAASPYRFEAEMTSGLERVAAHHHDLTLTSVFQPIFSLSHMRAVGYEALLRAHDALDRPVSPLDVFGEAARHGEAAQVDRLAQALHLENFARFGAEREWLFLNVHPGVLTDPFQAAALFANLKRLEIPPRRIVLEVLEQRADDIERLADAVREFREQGFLIALDDFGAGHSNIERIWQLNPDIVKLDRIMLSHAQHRAGLTAILHGLVTLLHEAGKLVLIEGIETEHEAQIALACDADFVQGHFFGRPAPGLPDGAAASACIGELTERYRQQAEASERRDAQRLAPYQRAFERAAERLAAGEPLDEVCWNFLALDHAARCFLLDERGRQAGRNVVRRADRARHETRFLPLADAQGANWLRRPYFRSAIAAPGRVQATRPYLSINEALPCVTLSIAVRVHDALCVLCGDIDWIDDEASMSA | soluble |
| MKPHFRNTVERMYRDTFSYNFYNRPILSRRNTVWLCYEVKTKGPSRPPLDAKIFRGQVYSELKYHPEMRFFHWFSKWRKLHRDQEYEVTWYISWSPCTKCTRDMATFLAEDPKVTLTIFVARLYYFWDPDYQEALRSLCQKRDGPRATMKIMNYDEFQHCWSKFVYSQRELFEPWNNLPKYYILLHIMLGEILRHSMDPPTFTFNFNNEPWVRGRHETYLCYEVERMHNDTWVLLNQRRGFLCNQAPHKHGFLEGRHAELCFLDVIPFWKLDLDQDYRVTCFTSWSPCFSCAQEMAKFISKNKHVSLCIFTARIYDDQGRCQEGLRTLAEAGAKISIMTYSEFKHCWDTFVDHQGCPFQPWDGLDEHSQDLSGRLRAILQNQEN | soluble |
| MAHHHHHHMRVFVLVAVRSGDGGVATYPPSVWHLQQCVRARSASCCHATSGGYLWTRDALFRALRRTHVDGAPASVLENAGASQRAKAAAPPCFYFFSALLDVGNNEEDVDLVALLLMELCVAWPNAIAAHMEVCRVCRGELSPAHASSPLAATLGEGETDEPSWQLEHFTREEALLVLLSDEIEATAATQDDFLTRWGVHNAWDHHRALQGRSWWVSGGIVAVLPSEAATRLVEPFLMLELSRMENGCPQLSRHPASCRDSSQTLEEALTHAILERELSHSVRAYLRNEVEGRIESRRLHRMTTVVPPAMALFLRGAPSSVLHECLLYHTVDCPLFPVEGGGCDAAQSSTDRATGLVAPAASPTAFLRPVKSGLSSTDLLERQRLVARDETSRLTELFCEYDLLLSGDGYVRVPLAPVSRYVFTQLLCQSELPSALMLALMRRHSDVTRRAGDMGHRIDPAAVSSRLPPPTEEEVVLGIKVTWAVTRWTAALQRGAAAAPPVGLPMWNEEQSLRKDKLCGWIRERMRKAKREAAELYSLEDAADTRATGREEDGVASTVSALPVASGDTADPLRRCRGAALEQLERRLFAPFPSSYRGSSTEWLGQALRDVAREQRHAASNMAQRDDVRASYAGPAPAARRAASPNVLDNSSSASDSDGTSDDGSEGAGGVGTPTRQETESLLAQLTELEVVLQNELASRTAIPLACGGDSRTTDSRLGVGDAVTGDQEMDVTSWLTAADMQQVTRNELFLHHVQLLESEMEQDQ | not soluble |
| MEDMYDSFAALSASESEYRIIYEEKNGSELIVLGPHGGRIEPGVSELVRAFSDRCSIYLFEGLKQRNNRSLHLTSIRFDEPLALEKVNDHHYALAFHGYYDPKIPHTLVGGADRKKAKLICERLNEAGFSAELTNEKDRLAGVHPNNIVNRTKREMGLQLEVSTAQRNALFRNFGCRDKSYIQNDLFDRYVEAVKLGFYTLEHHHHHH | soluble |
| MATVSDDYAQIDISTEEKDKLVAEVMRHVLFKTHQTAGCPIKREELTQIVTKNYRQRVLPALVIKEAGDRLAATFGYEMRELQRTRAPSTRSGRPSQQQVNVDAKSYVLVSKLDPEVYSKYVEHKEAAHVSGFAFVVISIVHLSGGKISEEDLWHQLRRLGLNESDENHPVLGNNKQALELLVQQRYLLKEKLSGPEGHSMMYELAERALDESISGKLKDYISQVVSTSTAAEVD | soluble |
| MLVQGAGGNTSIKQAGVLWIKASGTWLKNARDDEIMVPVALAPLLDAVSHRSPAAEAAGQFTLADLNPRQLRPSIETTVHALLPQKIVVHVHCVETISIAVQANAEALLEGRLRGLDWAFVPYRRPGLPLAQAIAERLKPATNVLVLGNHGLVVAADTVAEAALLLQRVTGLLARQPRPAPPPDLDALLRLAAGSDYRLPALEHHHHHH | soluble |
| LCPDPDDDEGLIVSDSDGMIVDVTEPLPRVTGYSKSELLGMETAALFWLRDGDNHSGHTRAPVSETEGRSHGLLECADGSRITVEQRSYTVRPEAETHVCTTVLFPGDGE | not soluble |
| MSLTLPSEKPATDVAAQCFLNALIRETTDWKLTEYPPDELIIPLDEQKSLHFRVAYFSPTQHHRFAFPARLVTASGSYPVDFTTLSRLIIDKLRHQLFLPVPLCETFHQRVLESHAHTQQAIDARHDWTALREKALNFGEAEQALLTGHAFHPAPKSHEPFNRREAERYLPDMAPHFPLRWFSVDKTQIAGESLHLNLQQRLTRFAAENAPQLLNELSDNQWLFPLHPWQGEYLLQQGWCQALVAKGLIKDLGEAGTSWLPTTSSRSLYCATSRDMIKFSLSVRLTNSIRTLSVKEVKRGMRLARLAQTDGWQMLQVRFPTFRVMQEDGWAGLLDLNGNIMQESLFALRENLLVDQPKSQTNVLVSLTQAAPDGGDSLLVSAVKRLSDRLGITVQQAAHAWVDAYCQQVLKPLFTAEADYGLVLLAHQQNILVQMLGDLPVGFIYRDCQGSAFMPHATDWLDSIGEAQAENIFTHEQLLRYFPYYLLVNSTFAVTAALGAAGLDSESNLMARVRASLAEVRDQVTHKTCLNYVLESPYWNVKGNFFCYLNDHNENTIVDPSVIYFDFANPLQAQEGHHHHHH | soluble |
| EGNITTVYFRSRDITAQKIAEKVLLDNERKLKTVYENSIQFLTVLDLDRKFIWFNKNARDRSPAVFGKDLIVGEVAESYIAKEYRTGFVENFNKAVAGETITYTRKYALNNAPFFLELSLAPVYNNDNTVVGVALTGIN | not soluble |
| GPGSMRGKTKKRKIYKRFSSLPKTETSTLPTVHSHTTCIRVQHVSHHLHAYICTLVSGMSHHRMWPSPITPSRTDATTTTTKTTTKNDTYSPHKKNTNTPHAKGRSYIVNLCHSFYSPTGDETVIWVTNVVRSCAAKYNYIPHILHSHETLVKRRCNENAANEKCLIRC | not soluble |
| MTPVQIAAVVVTYESSSTIDACLSRLRAAEGISEIRVVDNASSDDTLEVVQRHALADARLHFIANPDNPGFATACNQGARDSQAPWLVFINPDLMIARDTLLQLYHRAAGHPAVLLGVEQVDEQGRPDAAVRRRDPDFAAMLRAPRAAANLAVPADPSRALQPVDAISGALMLMQRSLFDRLDGWDGSYRLHAEDLDLCRRARQAGALVAVANDLHVLHVRGVSSRARPFFVEWHKHRGLWRYFRKFEADRRGLLTRLGVWLAIWSHAAAQVPRLLQNKLEHHHHHH | not soluble |
| MSLEATIRLGSSLPLTGHARYLGVETLRGALAYINHVNDSGGVHGRRIELDARDDGYDPPRCLANTQEQLISGEVFALTCYVGTPTTMRILPLVDEARIPLVGAFTGANGLRDPFSRYVFNVRASYYQETDAAVRHLVHDLGLTRIAVFYQYDAYGFDGLTGTELALRELGLAPVARGSYARGTDNIEDGLHRIIASDAEAVLMVGTSEPTARFIRMAEEAGFDAVYHALSFTGAEELARLLGHTDAKVLLSQVVPPPDAPEAPAILGCTTEYVNLLKRYYPDATPSAIGLEGYINARILVEGLRRAGPDLTREGFVRALESLRDYPLGGRTVVSFSPESRQGMGSVYFTRLVGGRFELMREAGAPPSAARPASNKGEGHHHHHH | soluble |
| MGSDKIHHHHHHMIKVAAAGGGTGGHLYPLLAILETLAKRVDVKVLFFAVKGKIDERVVRKDHPEFETVSIDVRGLLRPLHHPKNLWRTLKIGIATIEVKKHLKRFKPDLVVLTGGYISGVVGLAAKDLGIPIFVHEQNVVPGLAVKVLSQYAKKVFVSFERTRDYLREWQDKIVVTGCPVRETEKEAPLKDFVLVLGGSLGSEAINELMEKVYPELQETQFVHSTGSDDWTERLSVFPNVTALTYIDPMGAYWKKAIASISRAGASTIAEMMYYGVPGILIPWESSAESHQLENALEAERLGYAIVIRENEASPRKIIESIDKVVKKGKIEKMKENPASKISKEILGEIM | not soluble |
| LTNRGLKQVGWYLPAAQKTKKTAIVVHGFTNDKEDMKPYAMLFHDLGYNVLMPDNEAHGESEGNLIGYGWNDRLNVMAWTDQLIKENPESQITLFGLSMGAATVMMASGERLPAQVTSLIEDCGYASVWDELKFQAKAMYNLPAFPLLYEVSALSKIRAGFSYGEASSVKQLAKNKRPTLFIHGDKDDFVPTKMVYDNYKATKGPKEILIVKGAKHAKSFETNPEQYQKKIAAFLKKVEK | not soluble |
